According to patent US20190040368A1:

Biological target: recombinant human iduronate-2 sulfatase (rhIDS) (human) (UniProt P22304)
Assay: cell-based or functional assay

Sequence of recombinant human iduronate-2 sulfatase (rhIDS) (human) (P22304 26-550 limits assumed): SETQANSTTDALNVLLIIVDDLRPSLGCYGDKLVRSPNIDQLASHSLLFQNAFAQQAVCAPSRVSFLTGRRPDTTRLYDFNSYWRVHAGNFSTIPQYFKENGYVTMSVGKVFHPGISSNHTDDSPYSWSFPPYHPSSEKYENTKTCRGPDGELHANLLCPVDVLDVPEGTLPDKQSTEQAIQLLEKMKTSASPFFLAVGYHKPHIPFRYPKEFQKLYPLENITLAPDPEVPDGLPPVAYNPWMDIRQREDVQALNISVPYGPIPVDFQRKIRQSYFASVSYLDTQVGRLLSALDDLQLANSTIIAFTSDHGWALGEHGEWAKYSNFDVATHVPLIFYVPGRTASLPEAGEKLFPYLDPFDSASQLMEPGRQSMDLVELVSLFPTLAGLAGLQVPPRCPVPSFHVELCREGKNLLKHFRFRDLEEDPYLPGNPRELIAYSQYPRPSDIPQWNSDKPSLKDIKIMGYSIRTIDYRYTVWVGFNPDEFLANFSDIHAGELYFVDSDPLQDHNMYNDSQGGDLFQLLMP

Row | % FGly (LC-MS); 1 copy rhIDS, 1 copy BtFGE (POX) [%] | % FGly (LC-MS); 1 copy rhIDS, 1 copy BtFGE (POX), 1 copy hPDI (POX) [%] | % FGly (LC-MS); co-expression with DpFGE [%] | Substance
1 | 100 | 100 |  | Bos taurus FGE fusion protein (Lip2pre-BtFGE-6HIS-HDEL) (from UniProt Q0P5L5 34-374) (enzyme)
2 |  |  | 25 | Dendroctonus ponderosa Lip2-DpFGE-His6-HDEL fusion construct (enzyme)
